Data as given in US20240368253A1 (BIO TECHNE, published 2024).
Each block holds one binder with its values, some of them ahead of it.

Legend:
[1] = biological target: T1, alphaVBeta5 (αVβ5) integrin heterodimer (UniProt P06756 31-992; P18084 24-719); test: ELISA; printed as ED50 (median effective dose)
T1 construct: Heterodimer used in ELISA; source and construct not described; also called aVB5

[2] = biological target: T1, alphaVBeta5 (αVβ5) integrin heterodimer; test: ELISA, average of 5 experiments normalized to VTN-FL
[3] = biological target: T1, alphaVBeta5 (αVβ5) integrin heterodimer; test: ELISA

T1 sequence (P06756 31-992, chain 1 of 2): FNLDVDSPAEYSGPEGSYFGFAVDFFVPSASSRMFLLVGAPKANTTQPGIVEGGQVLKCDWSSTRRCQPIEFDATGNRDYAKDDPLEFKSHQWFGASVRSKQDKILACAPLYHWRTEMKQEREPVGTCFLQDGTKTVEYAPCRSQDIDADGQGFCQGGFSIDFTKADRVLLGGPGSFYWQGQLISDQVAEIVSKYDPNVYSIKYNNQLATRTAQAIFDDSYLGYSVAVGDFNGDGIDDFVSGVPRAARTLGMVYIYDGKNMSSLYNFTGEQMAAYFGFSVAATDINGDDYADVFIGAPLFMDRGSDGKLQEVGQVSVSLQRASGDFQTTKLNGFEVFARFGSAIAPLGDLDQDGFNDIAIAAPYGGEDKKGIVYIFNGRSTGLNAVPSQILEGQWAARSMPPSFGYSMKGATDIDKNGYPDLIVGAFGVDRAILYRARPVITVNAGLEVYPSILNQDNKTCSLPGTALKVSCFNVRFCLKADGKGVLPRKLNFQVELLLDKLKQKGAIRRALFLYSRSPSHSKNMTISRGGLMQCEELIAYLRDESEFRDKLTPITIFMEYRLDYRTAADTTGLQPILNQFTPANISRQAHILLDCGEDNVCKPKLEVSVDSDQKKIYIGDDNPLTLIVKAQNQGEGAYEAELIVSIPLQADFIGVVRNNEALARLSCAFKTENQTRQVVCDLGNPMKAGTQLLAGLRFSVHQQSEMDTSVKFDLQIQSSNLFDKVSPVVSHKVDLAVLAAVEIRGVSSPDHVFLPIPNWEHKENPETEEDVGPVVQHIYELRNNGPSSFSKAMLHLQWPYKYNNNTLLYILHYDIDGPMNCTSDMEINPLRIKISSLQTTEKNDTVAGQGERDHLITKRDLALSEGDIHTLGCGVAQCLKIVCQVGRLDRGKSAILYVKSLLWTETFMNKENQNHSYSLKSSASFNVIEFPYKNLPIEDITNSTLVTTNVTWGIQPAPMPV
T1 sequence (P18084 24-719, chain 2 of 2): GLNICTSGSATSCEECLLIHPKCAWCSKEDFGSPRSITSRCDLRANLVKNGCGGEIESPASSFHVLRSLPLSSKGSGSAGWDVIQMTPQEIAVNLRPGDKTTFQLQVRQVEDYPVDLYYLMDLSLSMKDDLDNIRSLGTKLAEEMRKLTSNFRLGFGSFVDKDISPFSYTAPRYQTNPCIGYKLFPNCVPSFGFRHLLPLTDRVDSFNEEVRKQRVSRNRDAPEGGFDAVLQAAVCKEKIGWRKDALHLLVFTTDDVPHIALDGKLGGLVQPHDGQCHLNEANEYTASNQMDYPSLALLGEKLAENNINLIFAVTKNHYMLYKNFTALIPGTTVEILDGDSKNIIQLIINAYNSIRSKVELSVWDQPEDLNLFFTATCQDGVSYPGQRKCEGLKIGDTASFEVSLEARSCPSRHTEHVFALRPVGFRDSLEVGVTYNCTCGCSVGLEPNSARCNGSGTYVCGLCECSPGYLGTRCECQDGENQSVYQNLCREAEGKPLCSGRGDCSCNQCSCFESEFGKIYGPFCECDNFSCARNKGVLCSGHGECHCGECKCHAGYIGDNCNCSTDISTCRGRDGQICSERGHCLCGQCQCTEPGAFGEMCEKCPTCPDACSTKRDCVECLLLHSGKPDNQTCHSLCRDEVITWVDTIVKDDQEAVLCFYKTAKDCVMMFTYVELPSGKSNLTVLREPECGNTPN

EC50 [1]: 0.523 µg/mL
fold increase in ED50 [2]: > 7 fold
B1: VTN62-292 T63G, V67N, F68P (ligand)
chain: VGRGDNPTMPEDEYTVYDDGEEKNNATVHEQVGGPSLTSDLQAQSKGNPEQTPVLKPEEEAPAPEVGASKPEGIDSRPETLHPGRPQPPAEEELCSGKPFDAFTDLKNGSLFAFRGQYCYELDEKAVRPGYPKLIRDVWGIEGPIDAAFTRINCQGKTYLFKGSQYWRFEDGVLDPDYPRNISDGFDGIPDNVDAALALPAHSYSGRERVYFFKGKQYWEYQFQHQPSQEEHHHHHH
notes: also called VN-3

fold increase in binding affinity [3]: ~2 fold
B2: VTN62-292,D80Y (ligand)
chain: MVTRGDVFTMPEDEYTVYDYGEEKNNATVHEQVGGPSLTSDLQAQSKGNPEQTPVLKPEEEAPAPEVGASKPEGIDSRPETLHPGRPQPPAEEELCSGKPFDAFTDLKNGSLFAFRGQYCYELDEKAVRPGYPKLIRDVWGIEGPIDAAFTRINCQGKTYLFKGSQYWRFEDGVLDPDYPRNISDGFDGIPDNVDAALALPAHSYSGRERVYFFKGKQYWEYQFQHQPSQEEHHHHHH
notes: also called D80Y mutant
